The values that follow come from patent US20170283458A1, “COLLAGEN-BINDING SYNTHETIC PEPTIDOGLYCANS FOR WOUND HEALING” (Symic Biomedical, Inc., priority 2009, published 2017).

Ends that are not written are not given here.

Series [1] addresses T1, collagen type III (Homo sapiens, UniProt P02461).
T1 construct: purchased Millipore
T1 sequence (P02461 154-1221 limits assumed): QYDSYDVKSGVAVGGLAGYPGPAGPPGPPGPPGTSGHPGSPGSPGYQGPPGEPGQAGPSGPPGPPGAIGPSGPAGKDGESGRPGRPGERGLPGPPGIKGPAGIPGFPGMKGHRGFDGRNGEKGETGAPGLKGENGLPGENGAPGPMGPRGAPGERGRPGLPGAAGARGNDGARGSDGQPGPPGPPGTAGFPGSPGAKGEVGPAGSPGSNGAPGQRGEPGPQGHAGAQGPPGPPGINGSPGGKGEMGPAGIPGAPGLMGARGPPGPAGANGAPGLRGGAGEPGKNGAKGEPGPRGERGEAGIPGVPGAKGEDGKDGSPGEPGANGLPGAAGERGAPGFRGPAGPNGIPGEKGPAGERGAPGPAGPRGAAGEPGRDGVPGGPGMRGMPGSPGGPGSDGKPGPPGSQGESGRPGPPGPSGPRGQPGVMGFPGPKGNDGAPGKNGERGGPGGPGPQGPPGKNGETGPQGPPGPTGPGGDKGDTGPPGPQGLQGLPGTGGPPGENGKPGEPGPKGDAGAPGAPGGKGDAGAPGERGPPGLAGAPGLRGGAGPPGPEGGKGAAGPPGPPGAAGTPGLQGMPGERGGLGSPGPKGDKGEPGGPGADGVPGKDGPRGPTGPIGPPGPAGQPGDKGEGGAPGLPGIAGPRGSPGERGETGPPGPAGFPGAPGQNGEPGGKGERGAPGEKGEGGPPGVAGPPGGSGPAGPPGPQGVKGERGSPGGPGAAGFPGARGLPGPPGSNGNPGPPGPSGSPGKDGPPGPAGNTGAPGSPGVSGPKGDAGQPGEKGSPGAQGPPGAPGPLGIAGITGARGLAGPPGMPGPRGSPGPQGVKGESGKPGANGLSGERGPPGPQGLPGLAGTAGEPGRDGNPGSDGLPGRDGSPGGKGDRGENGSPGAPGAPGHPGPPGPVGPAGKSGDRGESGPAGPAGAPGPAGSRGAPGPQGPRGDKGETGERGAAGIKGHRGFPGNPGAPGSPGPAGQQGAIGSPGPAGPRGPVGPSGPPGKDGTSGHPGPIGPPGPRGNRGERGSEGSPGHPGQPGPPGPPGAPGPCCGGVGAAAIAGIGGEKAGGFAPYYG
Nature of the series: Viscoelastic characterization of collagen III containing gels. It is filed as biochemical. The following applies: 1.5 mg/mL collagen (90% collagen III); 1:1 and 5:1 molar ratios. The protocol: Gels containing type III collagen were prepared as in EXAMPLE 16 with the following modifications: treated and untreated gel solutions were prepared using a collagen concentration of 1.5 mg/mL (90% collagen III (Millipore), 10% collagen I), 200 μL samples were pipetted onto 20 mm diameter wettable surfaces of hydrophobic printed slides. These solutions were allowed to gel at 37° C. for 24 hours. Gels were formed from collagen alone, collagen treated with dermatan sulfate (1:1 and 5:1 molar ratio), and collagen treated with the collagen III-binding peptides alone (GSIT and KELN, 5:1 molar ratio) served as controls.

For series [2], the target named is T2, collagen III (Homo sapiens, UniProt P02461).
T2 construct: purchased Millipore
T2 sequence (P02461 154-1221 limits assumed): T1 sequence (P02461 154-1221 limits assumed)
Nature of the series: Cryo-SEM measurements on collagen III, void space. To be noted: 1 mg/mL collagen (90% collagen III), 1:1 collagen:peptidoglycan. It is filed as biochemical. The protocol:
Gels for cryo-SEM were formed, as in EXAMPLE 16, directly on the SEM stage and incubated at 37° C. overnight with the following modifications. The collagen concentration was 1 mg/mL (90% collagen III, 10% collagen I). The collagen:DS ratio was 1:1 and the collagen:peptidoglycan ratio was 1:1. The images were recorded as in EXAMPLE 21. The ratio of void volume to fibril volume was measured using a variation of the method in EXAMPLE 21.

Series [3] deals with T3, collagen (Bos taurus, UniProt P02453+P02465).
T3 construct: purchased Inamed, Freemont, Calif; Nutragen
T3 sequence (P02453 162-1217 limits assumed): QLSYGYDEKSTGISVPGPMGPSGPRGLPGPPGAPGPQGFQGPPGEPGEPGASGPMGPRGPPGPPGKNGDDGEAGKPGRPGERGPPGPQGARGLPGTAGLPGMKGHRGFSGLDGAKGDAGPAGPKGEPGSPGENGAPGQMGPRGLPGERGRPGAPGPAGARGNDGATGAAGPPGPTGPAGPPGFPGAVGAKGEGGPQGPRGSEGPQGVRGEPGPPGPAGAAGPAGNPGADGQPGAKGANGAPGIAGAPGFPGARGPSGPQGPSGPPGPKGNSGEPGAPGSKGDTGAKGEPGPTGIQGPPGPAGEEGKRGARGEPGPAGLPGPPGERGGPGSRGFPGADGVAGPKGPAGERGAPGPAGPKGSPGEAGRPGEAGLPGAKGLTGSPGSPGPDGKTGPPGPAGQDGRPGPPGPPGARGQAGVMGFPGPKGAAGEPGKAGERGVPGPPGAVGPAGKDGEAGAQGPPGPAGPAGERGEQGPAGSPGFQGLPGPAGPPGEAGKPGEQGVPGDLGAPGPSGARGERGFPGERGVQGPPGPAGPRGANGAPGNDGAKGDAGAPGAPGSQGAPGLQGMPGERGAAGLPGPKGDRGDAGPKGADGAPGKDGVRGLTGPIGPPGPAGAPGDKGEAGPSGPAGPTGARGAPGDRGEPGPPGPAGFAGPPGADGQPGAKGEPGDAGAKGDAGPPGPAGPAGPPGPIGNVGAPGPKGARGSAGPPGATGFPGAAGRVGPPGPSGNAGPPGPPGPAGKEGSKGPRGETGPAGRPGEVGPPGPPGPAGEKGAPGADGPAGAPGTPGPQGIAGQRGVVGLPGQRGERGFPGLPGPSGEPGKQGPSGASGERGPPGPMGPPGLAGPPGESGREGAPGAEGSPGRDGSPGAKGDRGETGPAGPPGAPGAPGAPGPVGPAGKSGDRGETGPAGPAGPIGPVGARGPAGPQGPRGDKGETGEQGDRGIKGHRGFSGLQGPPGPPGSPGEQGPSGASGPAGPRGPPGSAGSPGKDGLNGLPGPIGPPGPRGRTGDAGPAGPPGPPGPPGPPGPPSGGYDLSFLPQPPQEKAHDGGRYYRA
T3 sequence (P02465 80-1117 limits assumed): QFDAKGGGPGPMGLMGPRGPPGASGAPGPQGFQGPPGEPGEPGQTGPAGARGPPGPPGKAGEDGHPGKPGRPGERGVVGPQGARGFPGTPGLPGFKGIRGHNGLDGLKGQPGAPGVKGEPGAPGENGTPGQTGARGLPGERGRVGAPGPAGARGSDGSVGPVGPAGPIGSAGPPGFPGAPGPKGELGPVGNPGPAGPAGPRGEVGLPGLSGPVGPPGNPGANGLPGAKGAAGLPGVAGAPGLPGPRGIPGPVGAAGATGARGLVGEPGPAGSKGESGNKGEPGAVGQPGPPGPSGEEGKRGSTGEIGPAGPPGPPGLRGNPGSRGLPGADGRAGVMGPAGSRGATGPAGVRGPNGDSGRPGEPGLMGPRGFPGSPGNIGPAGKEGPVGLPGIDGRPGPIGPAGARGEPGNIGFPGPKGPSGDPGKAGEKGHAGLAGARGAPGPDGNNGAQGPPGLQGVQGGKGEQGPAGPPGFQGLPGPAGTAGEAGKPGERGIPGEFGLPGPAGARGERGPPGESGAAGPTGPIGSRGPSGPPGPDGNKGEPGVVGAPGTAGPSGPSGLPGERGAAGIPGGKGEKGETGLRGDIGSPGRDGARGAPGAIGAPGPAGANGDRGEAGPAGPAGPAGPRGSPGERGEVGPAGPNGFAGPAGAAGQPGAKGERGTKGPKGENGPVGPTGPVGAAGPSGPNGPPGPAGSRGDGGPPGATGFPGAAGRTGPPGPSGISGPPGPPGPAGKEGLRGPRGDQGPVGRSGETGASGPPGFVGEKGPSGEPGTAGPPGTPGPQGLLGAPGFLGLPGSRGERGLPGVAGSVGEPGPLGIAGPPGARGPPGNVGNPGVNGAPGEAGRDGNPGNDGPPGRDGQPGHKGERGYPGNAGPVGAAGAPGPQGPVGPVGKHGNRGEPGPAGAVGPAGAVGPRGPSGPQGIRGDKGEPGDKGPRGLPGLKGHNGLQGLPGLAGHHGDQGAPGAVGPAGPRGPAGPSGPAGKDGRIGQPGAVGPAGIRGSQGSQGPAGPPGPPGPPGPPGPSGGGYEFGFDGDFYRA
The series can be described thus: Fibrillogenesis turbidity assay (absorbance at 313 nm). The class given is biochemical. The following applies: 1:1 collagen:additive molar ratio, vs collagen alone. How it is done:
(§1) Gels were made with Nutragen collagen (Inamed, Freemont, Calif.) at a final concentration of 4 mg/mL collagen. Nutragen stock is 6.4 mg/mL in 10 mM HCl. Gel preparation was performed on ice, and fresh samples were made before each test. The collagen solution was adjusted to physiologic pH and salt concentration, by adding appropriate volumes of 10×PBS (phosphate buffered saline), 1×PBS, and 1M NaOH. For most experiments, samples of DS, decorin, DS-SILY, or DS-Dc13 were added at a 10:1 collagen:treatment molar ratio by a final 1×PBS addition (equal volumes across treatments) in which the test samples were dissolved at appropriate concentrations. In this way, samples are constantly kept at pH 7.4 and physiologic salt concentration. Collagen-alone samples received a 1×PBS addition with no sample dissolved. Fibrillogenesis will be induced by incubating neutralized collagen solutions at 37° C. overnight in a humidified chamber to avoid dehydration. Gel solutions with collagen:treatment molar ratios of other than 10:1 were prepared similarly.
Collagen fibrillogenesis was monitored by measuring turbidity related absorbance at 313 nm providing information on rate of fibrillogenesis and fibril diameter. Gel solutions were prepared as described in EXAMPLE 16 (4 mg/mL collagen, 10:1 collagen:treatment, unless otherwise indicated) and 50 uL/well were added at 4° C. to a 384-well plate. The plate was kept at 4° C. for 4 hours before initiating fibril formation. A SpectraMax M5 at 37° C. was used to measure absorbance at 313 nm at 30 s intervals for 6 hours.
A fibrillogenesis assay as described for DS-SILY, EXAMPLE 19, performed with the conjugate DS-Dc13.

For series [4], the system named is Human aortic smooth muscle cells. The series can be described thus: Collagen remodeling: hydroxyproline content in medium of cell-seeded collagen gels. The class given is cell-based. To be noted: vs collagen alone; cultures up to 30 days. How it is done: Following a method by Grassl, et al. (Grassl, et al., Journal of Biomedical Materials Research 2002, 60, (4), 607-612), which is herein incorporated in its entirety, collagen gels with or without synthetic PG mimics were formed as described in EXAMPLE 16. Human aortic smooth muscle cells (Cascade Biologics, Portland, Oreg.) were seeded within collagen gels by adding 4×10^6 cells/mL to the neutralized collagen solution prior to incubation. The cell-collagen solutions were pipetted into an 8-well Lab-Tek chamber slide and incubated in a humidified 37° C. and 5% CO2 incubator. After gelation, the cell-collagen gels will be covered with 1 mL Medium 231 as prescribed by Cascade. Every 3-4 days, the medium was removed from the samples and the hydroxyproline content measured by a standard hydroxyproline assay (Reddy, 1996).
To measure degraded collagen in the supernatant medium, the sample was lyophilized, the sample hydrolyzed in 2M NaOH at 120° C. for 20 min. After cooling, free hydroxyproline was oxidized by adding chloramine-T (Sigma) and reacting for 25 min at room temperature. Ehrlich's aldehyde reagent (Sigma) was added and allowed to react for 20 min at 65° C. and followed by reading the absorbance at 550 nm on an M-5 spectrophotometer (Molecular Devices). […] Cultures were incubated for up to 30 days and three samples of each treatment measured. […]

Series [5] addresses T4, collagen I (Bos taurus, UniProt P02453+P02465).
T4 construct: purchased Inamed, Freemont, Calif; Nutragen
Nature of the series: Cryo-SEM measurements on collagen I, fibril diameter. It is filed as biochemical. The following applies: 4 mg/mL collagen, 10:1 collagen:treatment, cryo-SEM 20,000×. How it is done: as §1
Gels for cryo-SEM were formed, as in EXAMPLE 16, directly on the SEM stage and incubated at 37° C. overnight. The stages were then secured in a cryo-holder and plunged into liquid nitrogen slush. Samples were then transferred to a Gatan Alto 2500 pre-chamber cooled to −170° C. under vacuum. A free-break surface was created with a cooled scalpel, and each sample evaporated under sublimation conditions for 20 min. The sample was coated by platinum sputter coating for 120 s. Samples were transferred to the cryo-stage at −130° C. and regions with similar orientation were imaged for comparison across treatments. Analysis of the images was performed to determine the fibril diameter distribution, presented in histograms adjacent the corresponding image in FIG. 14, and average fibril diameter, FIG. 17 an 18;. Fibril diameter was calculated using ImageJ software (NIH) measuring individual fibrils by hand (drawing a line across fibrils and measuring its length after properly setting the scale). At least 45 independent fibril measurement were recorded for average fibril diameter calculations.

The test system of series [6] is Human coronary artery smooth muscle cells (HCA SMC). Nature of the series: Gel compaction by smooth muscle cells in collagen gels. The following applies: Days 3 and 5. It is filed as cell-based. How it is done: Human coronary artery smooth muscle cells (HCA SMC) (Cascade Biologics) were cultured in growth medium (Medium 231 supplemented with smooth muscle growth factor). Cells from passage 3 were used for all experiments. Differentiation medium (Medium 231 supplemented with 1% FBS and 1× pen/strep) was used for all experiments unless otherwise noted.
Collagen gels were prepared with each additive as described with the exception that the 1×PBS example addition was omitted to accommodate the addition of cells in media. After incubating on ice for 30 min, HCA SMCs in differentiation medium were added to the gel solutions to a final concentration of 1×10^6 cells/mL. Gels were formed in quadruplicate in 48-well non-tissue culture treated plates (Costar) for 6 hrs before adding 500 μL/well differentiation medium. Gels were freed from the well edges after 24 hrs. Medium was changed every 2-3 days and images for compaction were taken at the same time points using a Gel Doc System (Bio-Rad). The cross-sectional area of circular gels correlating to degree of compaction was determined using ImageJ software (NIH). Gels containing no cells were used as a negative control and cells in collagen gels absent additive were used as a positive control. […] By day 10 all gels had compacted to approximately 10% of the original gel area, and differences between additives were small.

Series [7] concerns Human dermal fibroblasts. Nature of the series: TGF-β1 production by human dermal fibroblasts (ELISA). The class given is cell-based. The following applies: 1.4 μM treatment, 48 hours. How it is done:
Human dermal fibroblasts (Cascade Biologics) were seeded onto 96-well tissue culture polystyrene plates at a seeding density of 1.83×10^3 cells/well. Cells adhered overnight and cell medium was aspirated. 100 μL/well of cell medium containing a final concentration of 1.4 μM treatment delivered from a concentrated solution of treatment in 1×PBS was added to the cells. After 48 hours, cell medium was removed and frozen at −80 C until further testing. TGF-β1 was measured by ELISA using a kit and protocol from R&D Systems.

T4 sequence (P02453 162-1217 limits assumed): as the sequence (P02453 162-1217 limits assumed) above
T4 sequence (P02465 80-1117 limits assumed): as the sequence (P02465 80-1117 limits assumed) above

Regarding “DS-KELN: dermatan sulfate conjugated to KELN peptide KELNLVYTGC (also: dermatan sulfate conjugate, site not given here)”, in series [1], the “viscoelastic properties of gels formed with collagen type III” value was “can influence the viscoelastic properties of gels formed with collagen type III”. Moreover, the void space result in series [2] is “decrease void space (increase fibril diameter and branching)”.

With SYIRIADTNITGC [Dc13], the effect on fibrillogenesis entry in series [3] is “little effect on fibrillogenesis compared to collagen alone”. In series [4], the “collagen degradation measured by hydroxyproline content in cell medium” value is reported as “greater collagen degradation compared to collagen alone”.

Turning to “DS-GSIT: dermatan sulfate conjugated to GSIT peptide GSITTIDVPWNVGC (also: dermatan sulfate conjugate, site not given here)”, in series [1], the “viscoelastic properties of gels formed with collagen type III” value was “can influence the viscoelastic properties of gels formed with collagen type III”. Besides, the void space entry in series [2] is “decrease void space (increase fibril diameter and branching)”.

B1: decorin: proteoglycan known to influence collagen fibrillogenesis (protein, UniProt P07585 31-359, looked up)
Decorin: DEASGIGPEVPDDRDFEPSLGPVCPFRCQCHLRVVQCSDLGLDKVPKDLPPDTTLLDLQNNKITEIKDGDFKNLKNLHALILVNNKISKVSPGAFTPLVKLERLYLSKNQLKELPEKMPKTLQELRAHENEITKVRKVTFNGLNQMIVIELGTNPLKSSGIENGAFQGMKKLSYIRIADTNITSIPQGLPPSLTELHLDGNKISRVDAASLKGLNNLAKLGLSFNSISAVDNGSLANTPHLRELHLDNNKLTRVPGGLAEHKYIQVVYLHNNNISVVGSSDFCPPGHNTKKASYSGVSLFSNPVQYWEIQPSTFRCVYVRSAIQLGNYK
Turning to B1, in series [5], the average fibril diameter result was “significant decrease in average fibril diameter”. For the same molecule, in series [6], the “gel compaction at early time points” value was “significantly compacted more than gels made of collagen alone or collagen with dermatan sulfate”. The “TGF-β1 in cell medium” value in series [7] is given as “significantly decreased TGF-β1”.
